Assay results taken from publication PMC6537586.

Details: ubiquitination at K571

With ELL2: K571R the degradation_or_half_life was “no change, half-life less than 6 h”.
